B1: THAP1; numbered along this chain (parent)
chain: MVQSCSAYGCKNRYDKDKPVSFHKFPLTRPSLCKEWEAAVRRKNFKPTKYSSICSEHFTPDCFKRECNNKLLKENAVPTIFLCTEPHDKKEDLLEPQEQLPPPPLPPPVSQVDAAIGLLMPPLQTPVNLSVFCDHNYTVEDTMHQRKRIHQLEQQVEKLRKKLKTAQQRCRRQERQLEKLKEVVHFQKEKDDVSERGYVILPNDYFEIVEVPA

Variants of: B1
Assay: THAP1 transcriptional activity (GFP+/GFP- enrichment relative to wild-type constructs) (ratio to WT); higher = more THAP1 activity (PSMB5 reporter activation)
Settings: with PSMB5 promoter-GFP reporter
How it was run: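 Variants were counted by Illumina sequencing of genomic DNA amplicons from BFP+ cells sorted into GFP-bright and GFP-dim bins five days after lentiviral transduction, in duplicate at MOI ~0.3. The library changed each of residues 2–213 of human THAP1 to all 20 amino acids and was introduced into THAP1-knockout HEK-293T cells with mClover3 knocked in at endogenous PSMB5. Activity equals the replicate-mean bright/dim read fold change over the mean of wild-type synonymous constructs.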

Variant	THAP1 transcriptional activity
MVQSCSAYGCKNRYDKDKPVSFHKFPLTRPSLCKEWEAAVRRKNFKPTKYSSICSEHFTPDCFKRECNNKLLKENAVPTIFLCTEPHDKKEDLLEPQEQLPPPPLPPPVSQVDAAIGLLMPPLQTPVNLSVFCDHNYTVEDTMHQRKRIHCLEQQVEKLRKKLKTAQQRCRRQERQLEKLKEVVHFQKEKDDVSERGYVILPNDYFEIVEVPA [Q151C]	0.782
MVQSCSAYGCKNRYDKDKPVSFHKFPLTRPSLCKEWEAAVRRKNFKPTKYSSICSEHFTPDCFKRECNNKLLKENAVPTIFLCTEPHDKKEDLLEPQEQLPPPPLPPPVSQVDAAIGLLMPPLQTPVNLSVFCDHNYTVEDTMHQRKRIHALEQQVEKLRKKLKTAQQRCRRQERQLEKLKEVVHFQKEKDDVSERGYVILPNDYFEIVEVPA [Q151A]	0.791
MVQSCSAYGCKNRYDKDKPVSFHKFPLTRPSLCKEWEAAVRRKNFKPTKYSSICSEHFTPDCFKRECNNKLLKENAVPTIFLCTEPHDKKEDLLEPQEQLPPPPLPPPVSQVDAAIGLLMPPLQTPVNLSVFCDHNYTVEDTMHQRKRIEQLEQQVEKLRKKLKTAQQRCRRQERQLEKLKEVVHFQKEKDDVSERGYVILPNDYFEIVEVPA [H150E]	0.884
MVQSCSAYGCKNRYDKDKPVSFHKFPLTRPSLCKEWEAAVRRKNFKPTKYSSICSEHFTPDCFKRECNNKLLKENAVPTIFLCTEPHDKKEDLLEPQEQLPPPPLPPPVSQVDAAIGLLMPPLQTPVNLSVFCDHNYTVEDTMHQRKRIYQLEQQVEKLRKKLKTAQQRCRRQERQLEKLKEVVHFQKEKDDVSERGYVILPNDYFEIVEVPA [H150Y]	0.767
MVQSCSAYGCKNRYDKDKPVSFHKFPLTRPSLCKEWEAAVRRKNFKPTKYSSICSEHFTPDCFKRECNNKLLKENAVPTIFLCTEPHDKKEDLLEPQEQLPPPPLPPPVSQVDAAIGLLMPPLQTPVNLSVFCDHNYTVEDTMHQRKRINQLEQQVEKLRKKLKTAQQRCRRQERQLEKLKEVVHFQKEKDDVSERGYVILPNDYFEIVEVPA [H150N]	0.896
MVQSCSAYGCKNRYDKDKPVSFHKFPLTRPSLCKEWEAAVRRKNFKPTKYSSICSEHFTPDCFKRECNNKLLKENAVPTIFLCTEPHDKKEDLLEPQEQLPPPPLPPPVSQVDAAIGLLMPPLQTPVNLSVFCDHNYTVEDTMHQRKRIGQLEQQVEKLRKKLKTAQQRCRRQERQLEKLKEVVHFQKEKDDVSERGYVILPNDYFEIVEVPA [H150G]	0.721
MVQSCSAYGCKNRYDKDKPVSFHKFPLTRPSLCKEWEAAVRRKNFKPTKYSSICSEHFTPDCFKRECNNKLLKENAVPTIFLCTEPHDKKEDLLEPQEQLPPPPLPPPVSQVDAAIGLLMPPLQTPVNLSVFCDHNYTVEDTMHQRKRIVQLEQQVEKLRKKLKTAQQRCRRQERQLEKLKEVVHFQKEKDDVSERGYVILPNDYFEIVEVPA [H150V]	1.1
MVQSCSAYGCKNRYDKDKPVSFHKFPLTRPSLCKEWEAAVRRKNFKPTKYSSICSEHFTPDCFKRECNNKLLKENAVPTIFLCTEPHDKKEDLLEPQEQLPPPPLPPPVSQVDAAIGLLMPPLQTPVNLSVFCDHNYTVEDTMHQRKRIWQLEQQVEKLRKKLKTAQQRCRRQERQLEKLKEVVHFQKEKDDVSERGYVILPNDYFEIVEVPA [H150W]	0.976
MVQSCSAYGCKNRYDKDKPVSFHKFPLTRPSLCKEWEAAVRRKNFKPTKYSSICSEHFTPDCFKRECNNKLLKENAVPTIFLCTEPHDKKEDLLEPQEQLPPPPLPPPVSQVDAAIGLLMPPLQTPVNLSVFCDHNYTVEDTMHQRKRIMQLEQQVEKLRKKLKTAQQRCRRQERQLEKLKEVVHFQKEKDDVSERGYVILPNDYFEIVEVPA [H150M]	1.09
MVQSCSAYGCKNRYDKDKPVSFHKFPLTRPSLCKEWEAAVRRKNFKPTKYSSICSEHFTPDCFKRECNNKLLKENAVPTIFLCTEPHDKKEDLLEPQEQLPPPPLPPPVSQVDAAIGLLMPPLQTPVNLSVFCDHNYTVEDTMHQRKRILQLEQQVEKLRKKLKTAQQRCRRQERQLEKLKEVVHFQKEKDDVSERGYVILPNDYFEIVEVPA [H150L]	0.769
MVQSCSAYGCKNRYDKDKPVSFHKFPLTRPSLCKEWEAAVRRKNFKPTKYSSICSEHFTPDCFKRECNNKLLKENAVPTIFLCTEPHDKKEDLLEPQEQLPPPPLPPPVSQVDAAIGLLMPPLQTPVNLSVFCDHNYTVEDTMHQRKRIIQLEQQVEKLRKKLKTAQQRCRRQERQLEKLKEVVHFQKEKDDVSERGYVILPNDYFEIVEVPA [H150I]	0.713
MVQSCSAYGCKNRYDKDKPVSFHKFPLTRPSLCKEWEAAVRRKNFKPTKYSSICSEHFTPDCFKRECNNKLLKENAVPTIFLCTEPHDKKEDLLEPQEQLPPPPLPPPVSQVDAAIGLLMPPLQTPVNLSVFCDHNYTVEDTMHQRKRIRQLEQQVEKLRKKLKTAQQRCRRQERQLEKLKEVVHFQKEKDDVSERGYVILPNDYFEIVEVPA [H150R]	1.19
MVQSCSAYGCKNRYDKDKPVSFHKFPLTRPSLCKEWEAAVRRKNFKPTKYSSICSEHFTPDCFKRECNNKLLKENAVPTIFLCTEPHDKKEDLLEPQEQLPPPPLPPPVSQVDAAIGLLMPPLQTPVNLSVFCDHNYTVEDTMHQRKRIQQLEQQVEKLRKKLKTAQQRCRRQERQLEKLKEVVHFQKEKDDVSERGYVILPNDYFEIVEVPA [H150Q]	1.21
MVQSCSAYGCKNRYDKDKPVSFHKFPLTRPSLCKEWEAAVRRKNFKPTKYSSICSEHFTPDCFKRECNNKLLKENAVPTIFLCTEPHDKKEDLLEPQEQLPPPPLPPPVSQVDAAIGLLMPPLQTPVNLSVFCDHNYTVEDTMHQRKRIPQLEQQVEKLRKKLKTAQQRCRRQERQLEKLKEVVHFQKEKDDVSERGYVILPNDYFEIVEVPA [H150P]	0.317
